Reference: patent US20210388087A1 (Chugai, published 2021)

Molecular target: T1, CD3 epsilon homodimer protein (UniProt P07766 23-126)
T1 construct: also called CD3 (CD3 epsilon)
Experiment: SPR, antibody over immobilised CD3e homodimer;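 further: SPR at 25 °C with CD3 epsilon homodimer amine-coupled to a CM4 sensor chip and antibody flowed over as analyte in HBS-EP+ running buffer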

T1 sequence (P07766 23-126): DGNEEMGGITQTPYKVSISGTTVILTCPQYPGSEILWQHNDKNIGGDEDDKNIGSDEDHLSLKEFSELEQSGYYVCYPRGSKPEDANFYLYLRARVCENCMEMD

| Binder | KD ratio to GLS3000 |
| --- | --- |
| CE115HA000/GLS3000 H34D (antibody, IgG1, name in Kabat numbering, V domains shown, one-arm IgG1) VH: QVQLVESGGGVVQPGRSLRLSCAASGFTFSNAWMHWVRQAPGKGLEWVAQIKAKSNNYATYYAESVKGRFTISRDDSKNSLYLQMNSLKTEDTAVYYCRYVHYGAYYGVDAWGQGTTVTVSS VL: DIVMTQSPLSLPVTPGEPASISCRSSQSLVHSNRNTYLDWYQQKPGQAPRLLIYKVSNRFSGVPDRFSGSGSGTDFTLKISRVEAEDVGVYYCGQGTQVPYTFGQGTKLEIK | 2100 |
| CE115HA000/GLS3000 K50E (antibody, IgG1, name in Kabat numbering, V domains shown, one-arm IgG1) VH: QVQLVESGGGVVQPGRSLRLSCAASGFTFSNAWMHWVRQAPGKGLEWVAQIKAKSNNYATYYAESVKGRFTISRDDSKNSLYLQMNSLKTEDTAVYYCRYVHYGAYYGVDAWGQGTTVTVSS VL: DIVMTQSPLSLPVTPGEPASISCRSSQSLVHSNRNTYLHWYQQKPGQAPRLLIYEVSNRFSGVPDRFSGSGSGTDFTLKISRVEAEDVGVYYCGQGTQVPYTFGQGTKLEIK | 57.2 |
| CE115HA000/GLS3000 H34G (antibody, IgG1, name in Kabat numbering, V domains shown, one-arm IgG1) VH: QVQLVESGGGVVQPGRSLRLSCAASGFTFSNAWMHWVRQAPGKGLEWVAQIKAKSNNYATYYAESVKGRFTISRDDSKNSLYLQMNSLKTEDTAVYYCRYVHYGAYYGVDAWGQGTTVTVSS VL: DIVMTQSPLSLPVTPGEPASISCRSSQSLVHSNRNTYLGWYQQKPGQAPRLLIYKVSNRFSGVPDRFSGSGSGTDFTLKISRVEAEDVGVYYCGQGTQVPYTFGQGTKLEIK | 1.08 |
| CE115HA000/GLS3000 H34K (antibody, IgG1, name in Kabat numbering, V domains shown, one-arm IgG1) VH: QVQLVESGGGVVQPGRSLRLSCAASGFTFSNAWMHWVRQAPGKGLEWVAQIKAKSNNYATYYAESVKGRFTISRDDSKNSLYLQMNSLKTEDTAVYYCRYVHYGAYYGVDAWGQGTTVTVSS VL: DIVMTQSPLSLPVTPGEPASISCRSSQSLVHSNRNTYLKWYQQKPGQAPRLLIYKVSNRFSGVPDRFSGSGSGTDFTLKISRVEAEDVGVYYCGQGTQVPYTFGQGTKLEIK | 4.1 |
| CE115HA000/GLS3000 H34Q (antibody, IgG1, name in Kabat numbering, V domains shown, one-arm IgG1) VH: QVQLVESGGGVVQPGRSLRLSCAASGFTFSNAWMHWVRQAPGKGLEWVAQIKAKSNNYATYYAESVKGRFTISRDDSKNSLYLQMNSLKTEDTAVYYCRYVHYGAYYGVDAWGQGTTVTVSS VL: DIVMTQSPLSLPVTPGEPASISCRSSQSLVHSNRNTYLQWYQQKPGQAPRLLIYKVSNRFSGVPDRFSGSGSGTDFTLKISRVEAEDVGVYYCGQGTQVPYTFGQGTKLEIK | 4.6 |
| CE115HA000/GLS3000 H34T (antibody, IgG1, name in Kabat numbering, V domains shown, one-arm IgG1) VH: QVQLVESGGGVVQPGRSLRLSCAASGFTFSNAWMHWVRQAPGKGLEWVAQIKAKSNNYATYYAESVKGRFTISRDDSKNSLYLQMNSLKTEDTAVYYCRYVHYGAYYGVDAWGQGTTVTVSS VL: DIVMTQSPLSLPVTPGEPASISCRSSQSLVHSNRNTYLTWYQQKPGQAPRLLIYKVSNRFSGVPDRFSGSGSGTDFTLKISRVEAEDVGVYYCGQGTQVPYTFGQGTKLEIK | 1.1 |
| CE115HA000/GLS3000 H34P (antibody, IgG1, name in Kabat numbering, V domains shown, one-arm IgG1) VH: QVQLVESGGGVVQPGRSLRLSCAASGFTFSNAWMHWVRQAPGKGLEWVAQIKAKSNNYATYYAESVKGRFTISRDDSKNSLYLQMNSLKTEDTAVYYCRYVHYGAYYGVDAWGQGTTVTVSS VL: DIVMTQSPLSLPVTPGEPASISCRSSQSLVHSNRNTYLPWYQQKPGQAPRLLIYKVSNRFSGVPDRFSGSGSGTDFTLKISRVEAEDVGVYYCGQGTQVPYTFGQGTKLEIK | 1.22 |
| CE115HA000/GLS3000 K50D (antibody, IgG1, name in Kabat numbering, V domains shown, one-arm IgG1) VH: QVQLVESGGGVVQPGRSLRLSCAASGFTFSNAWMHWVRQAPGKGLEWVAQIKAKSNNYATYYAESVKGRFTISRDDSKNSLYLQMNSLKTEDTAVYYCRYVHYGAYYGVDAWGQGTTVTVSS VL: DIVMTQSPLSLPVTPGEPASISCRSSQSLVHSNRNTYLHWYQQKPGQAPRLLIYDVSNRFSGVPDRFSGSGSGTDFTLKISRVEAEDVGVYYCGQGTQVPYTFGQGTKLEIK | 114 |
| CE115HA000/GLS3000 K50A (antibody, IgG1, name in Kabat numbering, V domains shown, one-arm IgG1) VH: QVQLVESGGGVVQPGRSLRLSCAASGFTFSNAWMHWVRQAPGKGLEWVAQIKAKSNNYATYYAESVKGRFTISRDDSKNSLYLQMNSLKTEDTAVYYCRYVHYGAYYGVDAWGQGTTVTVSS VL: DIVMTQSPLSLPVTPGEPASISCRSSQSLVHSNRNTYLHWYQQKPGQAPRLLIYAVSNRFSGVPDRFSGSGSGTDFTLKISRVEAEDVGVYYCGQGTQVPYTFGQGTKLEIK | 59.5 |
| CE115HA000/GLS3000 K50G (antibody, IgG1, name in Kabat numbering, V domains shown, one-arm IgG1) VH: QVQLVESGGGVVQPGRSLRLSCAASGFTFSNAWMHWVRQAPGKGLEWVAQIKAKSNNYATYYAESVKGRFTISRDDSKNSLYLQMNSLKTEDTAVYYCRYVHYGAYYGVDAWGQGTTVTVSS VL: DIVMTQSPLSLPVTPGEPASISCRSSQSLVHSNRNTYLHWYQQKPGQAPRLLIYGVSNRFSGVPDRFSGSGSGTDFTLKISRVEAEDVGVYYCGQGTQVPYTFGQGTKLEIK | 42.4 |
| CE115HA000/GLS3000 K50L (antibody, IgG1, name in Kabat numbering, V domains shown, one-arm IgG1) VH: QVQLVESGGGVVQPGRSLRLSCAASGFTFSNAWMHWVRQAPGKGLEWVAQIKAKSNNYATYYAESVKGRFTISRDDSKNSLYLQMNSLKTEDTAVYYCRYVHYGAYYGVDAWGQGTTVTVSS VL: DIVMTQSPLSLPVTPGEPASISCRSSQSLVHSNRNTYLHWYQQKPGQAPRLLIYLVSNRFSGVPDRFSGSGSGTDFTLKISRVEAEDVGVYYCGQGTQVPYTFGQGTKLEIK | 36.4 |
| CE115HA000/GLS3000 H34I (antibody, IgG1, name in Kabat numbering, V domains shown, one-arm IgG1) VH: QVQLVESGGGVVQPGRSLRLSCAASGFTFSNAWMHWVRQAPGKGLEWVAQIKAKSNNYATYYAESVKGRFTISRDDSKNSLYLQMNSLKTEDTAVYYCRYVHYGAYYGVDAWGQGTTVTVSS VL: DIVMTQSPLSLPVTPGEPASISCRSSQSLVHSNRNTYLIWYQQKPGQAPRLLIYKVSNRFSGVPDRFSGSGSGTDFTLKISRVEAEDVGVYYCGQGTQVPYTFGQGTKLEIK | 0.89 |
| CE115HA000/GLS3000 H34F (antibody, IgG1, name in Kabat numbering, V domains shown, one-arm IgG1) VH: QVQLVESGGGVVQPGRSLRLSCAASGFTFSNAWMHWVRQAPGKGLEWVAQIKAKSNNYATYYAESVKGRFTISRDDSKNSLYLQMNSLKTEDTAVYYCRYVHYGAYYGVDAWGQGTTVTVSS VL: DIVMTQSPLSLPVTPGEPASISCRSSQSLVHSNRNTYLFWYQQKPGQAPRLLIYKVSNRFSGVPDRFSGSGSGTDFTLKISRVEAEDVGVYYCGQGTQVPYTFGQGTKLEIK | 3.5 |
| CE115HA000/GLS3000 H34W (antibody, IgG1, name in Kabat numbering, V domains shown, one-arm IgG1) VH: QVQLVESGGGVVQPGRSLRLSCAASGFTFSNAWMHWVRQAPGKGLEWVAQIKAKSNNYATYYAESVKGRFTISRDDSKNSLYLQMNSLKTEDTAVYYCRYVHYGAYYGVDAWGQGTTVTVSS VL: DIVMTQSPLSLPVTPGEPASISCRSSQSLVHSNRNTYLWWYQQKPGQAPRLLIYKVSNRFSGVPDRFSGSGSGTDFTLKISRVEAEDVGVYYCGQGTQVPYTFGQGTKLEIK | 8.45 |
| CE115HA000/GLS3000 H34N (antibody, IgG1, name in Kabat numbering, V domains shown, one-arm IgG1) VH: QVQLVESGGGVVQPGRSLRLSCAASGFTFSNAWMHWVRQAPGKGLEWVAQIKAKSNNYATYYAESVKGRFTISRDDSKNSLYLQMNSLKTEDTAVYYCRYVHYGAYYGVDAWGQGTTVTVSS VL: DIVMTQSPLSLPVTPGEPASISCRSSQSLVHSNRNTYLNWYQQKPGQAPRLLIYKVSNRFSGVPDRFSGSGSGTDFTLKISRVEAEDVGVYYCGQGTQVPYTFGQGTKLEIK | 2.84 |
| CE115HA000/GLS3000 H34V (antibody, IgG1, name in Kabat numbering, V domains shown, one-arm IgG1) VH: QVQLVESGGGVVQPGRSLRLSCAASGFTFSNAWMHWVRQAPGKGLEWVAQIKAKSNNYATYYAESVKGRFTISRDDSKNSLYLQMNSLKTEDTAVYYCRYVHYGAYYGVDAWGQGTTVTVSS VL: DIVMTQSPLSLPVTPGEPASISCRSSQSLVHSNRNTYLVWYQQKPGQAPRLLIYKVSNRFSGVPDRFSGSGSGTDFTLKISRVEAEDVGVYYCGQGTQVPYTFGQGTKLEIK | 1.04 |
| CE115HA000/GLS3000 H34S (antibody, IgG1, name in Kabat numbering, V domains shown, one-arm IgG1) VH: QVQLVESGGGVVQPGRSLRLSCAASGFTFSNAWMHWVRQAPGKGLEWVAQIKAKSNNYATYYAESVKGRFTISRDDSKNSLYLQMNSLKTEDTAVYYCRYVHYGAYYGVDAWGQGTTVTVSS VL: DIVMTQSPLSLPVTPGEPASISCRSSQSLVHSNRNTYLSWYQQKPGQAPRLLIYKVSNRFSGVPDRFSGSGSGTDFTLKISRVEAEDVGVYYCGQGTQVPYTFGQGTKLEIK | 1.24 |
| CE115HA000/GLS3000 H34Y (antibody, IgG1, name in Kabat numbering, V domains shown, one-arm IgG1) VH: QVQLVESGGGVVQPGRSLRLSCAASGFTFSNAWMHWVRQAPGKGLEWVAQIKAKSNNYATYYAESVKGRFTISRDDSKNSLYLQMNSLKTEDTAVYYCRYVHYGAYYGVDAWGQGTTVTVSS VL: DIVMTQSPLSLPVTPGEPASISCRSSQSLVHSNRNTYLYWYQQKPGQAPRLLIYKVSNRFSGVPDRFSGSGSGTDFTLKISRVEAEDVGVYYCGQGTQVPYTFGQGTKLEIK | 2.44 |
| CE115HA000/GLS3000 H34E (antibody, IgG1, name in Kabat numbering, V domains shown, one-arm IgG1) VH: QVQLVESGGGVVQPGRSLRLSCAASGFTFSNAWMHWVRQAPGKGLEWVAQIKAKSNNYATYYAESVKGRFTISRDDSKNSLYLQMNSLKTEDTAVYYCRYVHYGAYYGVDAWGQGTTVTVSS VL: DIVMTQSPLSLPVTPGEPASISCRSSQSLVHSNRNTYLEWYQQKPGQAPRLLIYKVSNRFSGVPDRFSGSGSGTDFTLKISRVEAEDVGVYYCGQGTQVPYTFGQGTKLEIK | 8.03 |
| CE115HA000/GLS3000 H34L (antibody, IgG1, name in Kabat numbering, V domains shown, one-arm IgG1) VH: QVQLVESGGGVVQPGRSLRLSCAASGFTFSNAWMHWVRQAPGKGLEWVAQIKAKSNNYATYYAESVKGRFTISRDDSKNSLYLQMNSLKTEDTAVYYCRYVHYGAYYGVDAWGQGTTVTVSS VL: DIVMTQSPLSLPVTPGEPASISCRSSQSLVHSNRNTYLLWYQQKPGQAPRLLIYKVSNRFSGVPDRFSGSGSGTDFTLKISRVEAEDVGVYYCGQGTQVPYTFGQGTKLEIK | 1.03 |
| CE115HA000/GLS3000 H34M (antibody, IgG1, name in Kabat numbering, V domains shown, one-arm IgG1) VH: QVQLVESGGGVVQPGRSLRLSCAASGFTFSNAWMHWVRQAPGKGLEWVAQIKAKSNNYATYYAESVKGRFTISRDDSKNSLYLQMNSLKTEDTAVYYCRYVHYGAYYGVDAWGQGTTVTVSS VL: DIVMTQSPLSLPVTPGEPASISCRSSQSLVHSNRNTYLMWYQQKPGQAPRLLIYKVSNRFSGVPDRFSGSGSGTDFTLKISRVEAEDVGVYYCGQGTQVPYTFGQGTKLEIK | 3.16 |
